The nature of the series: self-splicing fitness, log relative to wild type (ln ratio); higher = more splicing; Tetrahymena group I intron in knt gene, E. coli kanamycin selection, DiMSum; sequences stand for … in CUCUCU…GGAGGGAAAAGUUAUCAGGCAUGCACCUGGUAGCUAGUCUUUAAACCAAUAGAUUGCAUCGGUUUAAAAGGCAAGACCGUCAAAUUGCGGGAAAGGGGUCAACAGCCGUUCAGUACCAAGUCUCAGGGGAAACUUUGAGAUGGCCUUGCAAAGGGUAUGGUAAUAAGCUGACGGACAUGGUCCUAACCACGCAGCCAAGUCCUAAGUCAACAGAUCUUCUGUUGAUAUGGAUGCAGUUCACAGACUAAAUGUCGGUCGGGGAAGAUGUAUUCUUCUCAUAAGAUAUAGUCGGACCUCUCCUUAAUGGGAGCUAGCGGAUGAAGUGAUGCAACACUGGAGCCGCUGGGAACUAAUUUGUAUGCGAAAGUAUAUUGAUUAGUUUUGGAGUACUCGUGGUCG
In short, it runs like this: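 Six replicate transformations of E. coli BL21(DE3) with a pET-22b(+) library were grown overnight at 37°C or 30°C. The library randomised all eight P1ex-region intron nucleotides, the intron lying in the knt kanamycin-resistance gene, and plates were LB agar with or without 25 μg/mL kanamycin plus 100 μg/mL carbenicillin, 50 μM IPTG and 0.2% rhamnose. Pooled colonies were amplicon-sequenced on an Illumina HiSeq 2500, and fitness is the DiMSum error-weighted combination of wild-type-normalised replicate fold changes, kanamycin versus none.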

± gives the uncertainty stated by the source.

Consider UGUGAGCAAUAUUACGAGCA, for which the “self-splicing fitness (ln)” value by setting is: (30 °C) -0.913 ± 0.16; (37 °C) -0.797 ± 0.21.

For GACUAGCAAUAUUACGCCAU, the “self-splicing fitness (ln)” value was -2.02 ± 0.12 (30 °C) and -1.32 ± 0.14 (37 °C).

As to AAUCAGCAAUAUUACGCAGU, the “self-splicing fitness (ln)” value was -0.402 ± 0.066 (30 °C) and -0.257 ± 0.078 (37 °C). For GCUUAGCAAUAUUACGAGGC, the “self-splicing fitness (ln)” value (37 °C) is -1.93 ± 0.41.

Turning to GUGGAGCAAUAUUACGUAAG, the “self-splicing fitness (ln)” value is -3.04 ± 0.26 (30 °C) and -1.21 ± 0.47 (37 °C). The matching figures for AGUGAGCAAUAUUACGACAA: -2.34 ± 0.23 and -0.743 ± 0.18. Regarding UCCAAGCAAUAUUACGAAAG, the “self-splicing fitness (ln)” value runs as follows: (30 °C) -2.45 ± 0.19; (37 °C) -3.23 ± 0.35. As to UCGUAGCAAUAUUACGAACG, the “self-splicing fitness (ln)” value is -2.5 ± 0.21 (30 °C) and -1.94 ± 0.23 (37 °C). GACUAGCAAUAUUACGUGAC: the “self-splicing fitness (ln)” value was -1.34 ± 0.085 (30 °C) and -1.39 ± 0.12 (37 °C).

UCACAGCAAUAUUACGUAGG: the “self-splicing fitness (ln)” value is -1.07 ± 0.055 (30 °C) and -1.05 ± 0.082 (37 °C).

For CGUUAGCAAUAUUACGCUAC, the “self-splicing fitness (ln)” value (30 °C) is -1.48 ± 0.24. On to GCAUAGCAAUAUUACGACAG, for which the “self-splicing fitness (ln)” value runs as follows: (30 °C) -3.41 ± 0.26; (37 °C) -2.71 ± 0.33. In the case of UUUAAGCAAUAUUACGUAAU, the “self-splicing fitness (ln)” value was -2.15 ± 0.11 (30 °C) and -1.74 ± 0.12 (37 °C). The matching figures for GAUCAGCAAUAUUACGUUAA: -1.23 ± 0.076 and -0.776 ± 0.084.

In the case of CAGGAGCAAUAUUACGUGCG, the “self-splicing fitness (ln)” value is -1.56 ± 0.079 (30 °C) and -0.807 ± 0.088 (37 °C). As to AGAAAGCAAUAUUACGCAUC, the “self-splicing fitness (ln)” value (30 °C) was -2.53 ± 0.34. Consider GGGAAGCAAUAUUACGAAAG, for which the “self-splicing fitness (ln)” value (37 °C) was -2.48 ± 0.41. In the case of GUUGAGCAAUAUUACGAUUC, the “self-splicing fitness (ln)” value (30 °C) is -0.993 ± 0.12 and the “self-splicing fitness (ln)” value (37 °C) was found to be 0.00124 ± 0.2. On to AGCGAGCAAUAUUACGAUCU, for which the “self-splicing fitness (ln)” value (30 °C) is -0.233 ± 0.09 and the “self-splicing fitness (ln)” value (37 °C) was -0.579 ± 0.12. Consider UCCCAGCAAUAUUACGAUAA, for which the “self-splicing fitness (ln)” value was -2.32 ± 0.12 (30 °C) and -1.85 ± 0.14 (37 °C). Take CCCUAGCAAUAUUACGUAGC: the “self-splicing fitness (ln)” value was -2.65 ± 0.17 (30 °C) and -2.75 ± 0.24 (37 °C). The matching figures for CCUGAGCAAUAUUACGACUG: -1.38 ± 0.16 and -1.25 ± 0.19. The matching figures for UAACAGCAAUAUUACGACAU: -1.139 ± 0.011 and -0.372 ± 0.032. As for AUUGAGCAAUAUUACGUAUA, the “self-splicing fitness (ln)” value is, setting by setting: (30 °C) -2.67 ± 0.28; (37 °C) -2.98 ± 0.32. For the sequence CUUGAGCAAUAUUACGGAGU, the “self-splicing fitness (ln)” value (30 °C) is -1.09 ± 0.13 and the “self-splicing fitness (ln)” value (37 °C) is -1.97 ± 0.28. The matching figures for UCGCAGCAAUAUUACGUGUA: -1.19 ± 0.082 and -0.901 ± 0.083. The matching figures for CUCCAGCAAUAUUACGUUUA: -3.31 ± 0.27 and -2.27 ± 0.18. Take UCCGAGCAAUAUUACGGUUA: the “self-splicing fitness (ln)” value is, setting by setting: (30 °C) -0.525 ± 0.058; (37 °C) -0.174 ± 0.063. The matching figures for GUCAAGCAAUAUUACGACGG: -4.06 ± 0.37 and -1.71 ± 0.34. Regarding CGGGAGCAAUAUUACGGGGU, under “30 °C”, the “self-splicing fitness (ln)” value is -2.03 ± 0.42.

For CCGGAGCAAUAUUACGGUCU, the “self-splicing fitness (ln)” value is -2.42 ± 0.22 (30 °C) and -2.54 ± 0.38 (37 °C). Consider UCUAAGCAAUAUUACGAGAU, for which the “self-splicing fitness (ln)” value (37 °C) is -0.699 ± 0.22. Regarding AGUGAGCAAUAUUACGUUAC, the “self-splicing fitness (ln)” value (30 °C) was -3.72 ± 0.47. As for UCCCAGCAAUAUUACGUCUG, the “self-splicing fitness (ln)” value reads like this: (30 °C) -3.05 ± 0.17; (37 °C) -2.85 ± 0.31. CUUUAGCAAUAUUACGGUCG: the “self-splicing fitness (ln)” value (30 °C) was -0.496 ± 0.055 and the “self-splicing fitness (ln)” value (37 °C) is -0.259 ± 0.083. Regarding CAUGAGCAAUAUUACGUGGU, the “self-splicing fitness (ln)” value is -3.53 ± 0.18 (30 °C) and -2.49 ± 0.16 (37 °C). In the case of UACAAGCAAUAUUACGUUAC, the “self-splicing fitness (ln)” value reads like this: (30 °C) -4.21 ± 0.23; (37 °C) -2.84 ± 0.22. The matching figures for CUCGAGCAAUAUUACGUGCA: -2.2 ± 0.17 and -1.01 ± 0.17. The matching figures for AUCUAGCAAUAUUACGAAGG: -3.42 ± 0.3 and -2.01 ± 0.32. As to CAUGAGCAAUAUUACGUUGC, the “self-splicing fitness (ln)” value reads like this: (30 °C) -2.57 ± 0.091; (37 °C) -3.34 ± 0.2.

(Values after the supplement of paper PMC7877785.)
